The values below come from patent US20250171560A1.

The target of this assay is T1, C-terminal flag-tagged ACPP transmembrane protein expressed on 293T cells (pcDNA-ACPP-flag).
T1 sequence: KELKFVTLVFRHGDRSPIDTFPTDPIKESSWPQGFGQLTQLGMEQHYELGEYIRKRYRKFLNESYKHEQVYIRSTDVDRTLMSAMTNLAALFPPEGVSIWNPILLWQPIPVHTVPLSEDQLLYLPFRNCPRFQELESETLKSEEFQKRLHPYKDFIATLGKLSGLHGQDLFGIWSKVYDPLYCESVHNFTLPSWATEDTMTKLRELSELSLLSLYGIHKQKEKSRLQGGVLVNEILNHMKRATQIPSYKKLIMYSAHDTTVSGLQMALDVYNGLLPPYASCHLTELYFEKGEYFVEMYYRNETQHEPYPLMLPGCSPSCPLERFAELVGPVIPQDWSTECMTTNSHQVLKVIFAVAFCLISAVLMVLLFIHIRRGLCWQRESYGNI
Briefly: flow cytometry on 293T cells transfected with pcDNA-ACPP-flag, surface staining without permeabilisation, goat anti human-FITC secondary antibody.

B1: ACPP antibody S12D4 (human full antibody) (antibody, V domains shown)
VH: QMQLVQSGAEVRRPGSSVKVSCKTSGGTLNNYDINWVRQAPGQGLEWMGWMNPTSGQADFAQKFQGRVSMTRDTSINTAFMELNTLRSEDTAVYYCVRRGGKYWGQGTLVTVSS
VL: QPVLTQDPAVSVALGQTVRITCQGDSLRKYYASWYQQKPGQAPRLVMYDENDRPSGIPDRFSGSSSGNTASLTITGAQADDEADYYCNSRDSSGHHVVFGGGTKVTVL
Turning to B1, the % of cells in the positive gate V1R was determined as 0.06%.

B2: ACPP antibody S12D9 (human full antibody) (antibody, V domains shown)
VH: EVQLVQSGAEVRKPGSSVKVSCKASGDNFNNYGITWVRQAPGQGLEWMGRLITVLGLDNYAQKFQGRLTITADESTGTAYMELTGLEPEDTAVYYCARDIMSPEAIDAFDVWGQGTLVTVSS
VL: QPVLTQDPVVSVALGQTVRITCQGDSLRSYYATWYQQKPGLAPVRVIFGKNSRPSGIPDRFSGSSSGNTASLTITGAQAEDEADYYCNSWDNSANHPVFGGGTKLTVL
For the molecule B2, the % of cells in the positive gate V1R was 0.01%.

B3: ACPP antibody S10E12 (human full antibody) (antibody, V domains shown)
VH: EVQLVQSGAEVRKPGSSVKVSCKASGDNFNNYGITWVRQAPGQGLEWMGRLITVLGLDNYAQKFQGRLTITADESTGTAYMELTGLEPEDTAVYYCARDIMSPEAIDAFDVWGQGTLVTVSS
VL: DIQMTQSPSSLSASVGDRVTITCRASQDVSNYLNWYQQKPGKAPKLLIYGASNRQTGVPSRFSGSGSGTDFTLTISSLQPEDFATYYCQQEDRFPTTFGQGTKVEIK
For B3, the % of cells in the positive gate V1R was found to be 0.18%.

B4: ACPP antibody S4C7 (human full antibody) (antibody, V domains shown)
VH: QMLVQSGAEVKRPGSSVTVSCETSGDTFSRYAISWLRQAPGQGLEWLGWISGNSGRADYAQNFQGRVTMTTDRSTSTAYLNLRSLRSDDTAVYYCARDAPMLFGVRGGGYYFGMDVWGQGTTVTVSS
VL: EIVLTQSASSLSASVGDRVTITCRTSQNIYRYLNWYQQKPGKAPKLLIFGASTLQTGVPSRFSGSGSGTDFTLTITGLQPEDLATYYCQHSFKLPFTFGQGTRLEIK
With B4, the % of cells in the positive gate V1R was 0.1%.

B5: ACPP antibody S9F5 (human full antibody) (antibody, V domains shown)
VH: EVQLVESGGGLVQPGGSLRLSCAASGFTFSNYWMSWVRQAPGKGLEWVAGISASGGNKYYADSVKGRFTISRDNSKNTLYLQMNSLRAEDTAVYYCAKGPIQLKRHKYVLDYWGQGTLVTVSS
VL: SYELTQPPSVSVAPGQTARITCGGDALPNNSVRWYQQKPGQAPVLVIYGNSERPSGIPERFSGSNSGNTATLTISGTQAEDEADYYCQVSDKSTKYSVFGGGTKLTVL
B5: the % of cells in the positive gate V1R stood at 0.15%.
